Where a chain is given by its changes, count along the chain named.
B1: ADI-15589 (antibody, V domains shown)
VH: QVQLQQWGAGLLKPSETLSLTCAVYGGSFSGYYWGWIRQPPGKGLEWIGEVNHSGTSNYNPSLTSRVTISVDPSKKQLSLKLNSVTAADTAVYYCARAPWYTHAMDVWGQGTTVTVSS
VL: QSVLTQPASVSGSPGQSITISCTRTSSDVGAYSYVSWYQQHPGKAPKLMIYDVNNRPSGVSNRFSGSKSGNTASLTISGLQAEDEADYYCSSYTNSNTLGVFGGGTKLTVL
B2: ADI-15570 (antibody, V domains shown)
VH: QVQLVESGGGVVQPGKSLRLSCAASGFTFSSYPMHWVRQAPGAGLEWMAVISYDGANKYYEDSLKGRFTISRDNSKDTLFLQMNNLRPEDTAVYYCARGRTSHINTPETKWGQGTLVTVSS
VL: EIVLTQSPTLVSASTGDTVTISCRMSQGINGYLAWFQKKPGKAPDLLIYGASTLQDGVPSRFSGSGSGTDFTLTISRLQSEDLATYYCQQYYSLPWTFGQGTKVDIK
B3: ADI-15634 (antibody, V domains shown)
VH: QVQLVQSGAEVKKPGSSVKVSCKASGGTFSSYAISWVRQAPGQGLEWMGGIIPIFGTVNYAQKFQGRVTITADESTSTAYMELSSLRSEDTAVYYCARDRSVTPRYYGMDVWGQGTTVTVSS
VL: EIVMTQSPATLSLSPGERATLSCRASQSVSSYLAWYQQKPGQAPRLLIYDASNRATGIPARFSGSGSGTDFTLTISSLEPEDFAVYYCQHRSNWPPLTFGPGTKLEIK
B4: ADI-15664 (antibody, V domains shown)
VH: EVQLVESGAEVKKPGSSVKVSCKASGGTFSSYAISWVRQAPGQGLEWMGGTIPIFGTINYAQKFQGRLTINADASTSTAYMELSSLRSEDTAVYFCARDRTTAVRYYAMDVWGQGTTVTVSS
VL: B3 VL with M4L, A51T, G57D, S92A, P101G, L105V
B5: ADI-15630 (antibody, V domains shown)
VH: QVQLVQSGGGLVKPGGSLRLSCAASGFIFSDYYMVWIRQAPGKGLEWVSYISSSSRYINYADSVKGRFTISRDNAKNSLFLQMNTVRAEDTAVYYCAQGWYSDFWSGPIRIWGQGTLVTVSS
VL: DIQLTQSPSSLSASVGDRVTITCQASQDISNSLNWFQQKPGKAPKLLIFDAYNLETGVPSRFSGSGSGTDFTLTISSLQPEDIATYYCQQNDNLVLTFGGGTKLEIK
B6: ADI-15636 (antibody, V domains shown)
VH: EVQLVESGAEVKKPGSSVKVSCKASADTFSSYAISWVRQAPGQGLEWMGGILPILGTANSAQKFRGRVTFTADESTTTAYMELSSLRSEDTAVYYCARLAGPRWPGYGMDVWGQGTLVTVSS
VL: DIQLTQSPSFLSASVGDRVTITCRASQGISSYLAWYQQKPGKAPKLLIYAASTLQSGVPSRFSGSGSGTEFTLTISSLQPEDFATYYCQQLNSFPLTFGGGTKVEIK
B7: ADI-15572 (antibody, V domains shown)
VH: QVQLVQSGAEAKKPGASVKVSCKASGYTFTSYYLHWVRQAPGQGPEWMGIINPGGGSTELSQKFQGRVTLTRDTSTSTVYMEVTSLTSEDTAVYYCARARIQLWAPNYYGMDVWGQGTTVTVSS
VL: B6 VL with Q27H, S30T, K42N, G68E, E70Q, S77G, S93R, F94Y, G100Q
B8: ADI-15579 (antibody, V domains shown)
VH: EVQLVESGGGLVQPGRSLRLSCAAFGFTFDDYAMHWVRQAPGKGLEWVSGISWNSGFIGYADSVKGRFTISRDNAKNSLSLQMNSLRTEDTALYYCAKTDGAVAVDGPFDYWGQGTLVTVSS
VL: EIVLTQSPSSLSASVGDRVTITCRASQSISGYLSWYQQKPGKAPKLLIHSTSSLQSGVPSRFSGSGSGTDFTLTITSLQPEDFATYYCQQSYIAPPTFGQGTKVEIK
B9: ADI-15661 (antibody, V domains shown)
VH: EVQLVESGGGVVQPGRSLRLSCEASGFNFHNYDIQWVRQAPGKGLEWVALVLFDGSKKYYPHSVKGRFAISRDNSKKTLFLQMNSLRPEDTAVYYCARAPVTGASYYLDYWGQGTLVTVSS
VL: SYVLTQPPSVSVAPGQTARITCGANNIGNKGVHWYQQKPGQAPVLVVYDDDDQPSGIPERFSGSNSGNTATLTISRVEAGDEADYYCQVWDSTSDHLVFGGGTQLTVL
B10: ADI-15590 (antibody, V domains shown)
VH: EVQLLESGGLVVQPGGSLRLSCAASGFIFDDYTMHWVRQAPGKGLEWISLISWDSLDTYYAGSVQGRFTISRDNSRNSLYLRMNSLRPEDTALYYCAKTKYRGTYYYFDSWGQGTLVTVSS
VL: DIRVTQSPSSLSASVGDRVTITCQASQDISNYLNWYQQKPGKAPKLLIYDASNLETGVPSRFSGRGSGTDFTFTISSLQPEDIATYYCQQYDNLPPVTFGPGTKVEIK
B11: ADI-15613 (antibody, V domains shown)
VH: EVQLVESGAEVKKPGSSVKVSCKVSGGTFSTYGISWIQQAPGQGLEWVGGIIPMFGTANYAQRFQGRVTLTADEGTNTAYMELNNLRSEDTAMYYCARDRGNNGRYYAMDVWGQGTTVTVSS
VL: DIVLTQTPATLSLSPGERATLSCRASQSVTTYLAWYQQKPGQAPRLLIYDTSNRATGIPARFSGSGSGTDFTLTISSLEPEDFAVYYCQQRNNWPPTFGQGTRLEIK
B12: ADI-15562 (antibody, V domains shown)
VH: QVQLVQSGAEVKKPGDSLKISCKNAGHTSRIYWIAWVRQMPAKGLEYMGIIFPGDSDTRYSPSFRGQVTISADRSIRTAYLQLSSLKASDTGIYYCATQGLEGAFDYWGQGTLVTVSS
VL: DIRLTQSPSSLSASVGDRVTITCQASQDISNQLNWYQQKPGTAPKLLIYDASFLQTGVPSRFSGSGSGTHFTFTITSLQPEDFATYFCQHYDSFPIFTFGPGTKLEIK
B13: ADI-15581 (antibody, V domains shown)
VH: QVQLVQSGAEVKKPGSSMKVSCQASGGPFSTYTISWVRQAPGQGLEWMGGIIPVFGTPNYAQKFHGRVTITADQSTSTAYMELSSLRSEDTAVYYCAGAPYPMDVWGQGTTVTVSS
VL: EIVLTQSPATLSLSPGERATLSCRASQSVASSLAWYQQKPGQAPRLLIYDASNRATGIPARFSGSGSGTDFTLTISSLEPEDFAVYYCQQRTNWQGLSFGGGTKVDIK
B14: ADI-15555 (antibody, V domains shown)
VH: EVQLVESGGALVKPGGSLRLSCVGTGLTFTTAYMSWARQAPGKGLEWVGRIKSKSDGGTTDYPTPVKGRFTISRDESKNTLYLQMNSLKIEDTAVYYCTTDRGITARPIFDSWGQGTLVTVSS
VL: QSVLTQPPSVSGALGRRVTISCTGSSSNIGAGYDVHWYRQLPGTAPKLLIYGNTKRPSGVPDRFSGSKYATSASLAITGLQAEDDADYYCQSYDGGLSGYVFGTGTKLTVL

Columns and labels:
[1] = molecular target: RSV F protein of subtype A strain A2, on virus (respiratory syncytial virus subtype A …, UniProt P03420 26-574); assay: cell-based or functional assay
[2] = molecular target: RSV F protein of subtype B strain 18537, on virus (respiratory syncytial virus subtype B …, UniProt P13843 26-574); assay: cell-based or functional assay

Binder	Neut IC50 (ug/ml) subtype A [1] [µg/mL]	Neut IC50 (ug/ml) subtype B [2] [µg/mL]
B1	0.876	18.5
B2	13.3	> 10
B3	> 10	> 10
B4	> 10	> 10
B5	> 10	6.64
B6	> 10	6.44
B7	9.48	6.25
B8	8.02	> 10
B9	0.021	> 10
B10	> 10	> 10
B11	0.862	3.04
B12	0.01	
B13	8.25	6.12
B14	2.19	2.45
